Laboratory results taken from patent publication US20120077731A1 (Ablynx, published 2012).

T1: Cyno plasma sIL-6R (cynomolgus monkey, UniProt A0A2K5WN54 60-396)
T1 construct: also called cynomolgus sIL-6R
T1 sequence: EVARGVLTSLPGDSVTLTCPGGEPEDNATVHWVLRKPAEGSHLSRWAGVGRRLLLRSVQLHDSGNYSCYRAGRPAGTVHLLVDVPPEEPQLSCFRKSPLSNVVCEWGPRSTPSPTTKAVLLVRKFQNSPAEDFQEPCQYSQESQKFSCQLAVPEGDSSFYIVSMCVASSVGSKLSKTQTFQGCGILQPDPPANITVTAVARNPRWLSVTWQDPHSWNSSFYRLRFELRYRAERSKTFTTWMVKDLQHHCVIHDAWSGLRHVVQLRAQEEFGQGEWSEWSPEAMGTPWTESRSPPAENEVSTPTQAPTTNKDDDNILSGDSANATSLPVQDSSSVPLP

T2: Human soluble IL-6R (human, UniProt P08887 20-358)
T2 construct: Soluble recombinant form; biotinylated in some assays; also called hIL-6R; human IL-6R
T2 sequence (looked up): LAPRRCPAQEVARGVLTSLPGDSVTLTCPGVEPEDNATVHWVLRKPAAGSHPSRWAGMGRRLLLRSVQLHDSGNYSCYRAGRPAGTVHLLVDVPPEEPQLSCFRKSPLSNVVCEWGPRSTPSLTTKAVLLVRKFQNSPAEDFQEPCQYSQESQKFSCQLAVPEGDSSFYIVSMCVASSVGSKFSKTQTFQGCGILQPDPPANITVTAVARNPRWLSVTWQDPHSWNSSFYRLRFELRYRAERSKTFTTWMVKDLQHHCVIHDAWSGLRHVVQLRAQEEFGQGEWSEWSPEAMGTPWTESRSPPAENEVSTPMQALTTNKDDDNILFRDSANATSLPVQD

T3: Human plasma sIL-6R (human, UniProt P08887 20-355, limits assumed)
T3 construct: also called plasma-derived human IL-6R
T3 sequence (looked up): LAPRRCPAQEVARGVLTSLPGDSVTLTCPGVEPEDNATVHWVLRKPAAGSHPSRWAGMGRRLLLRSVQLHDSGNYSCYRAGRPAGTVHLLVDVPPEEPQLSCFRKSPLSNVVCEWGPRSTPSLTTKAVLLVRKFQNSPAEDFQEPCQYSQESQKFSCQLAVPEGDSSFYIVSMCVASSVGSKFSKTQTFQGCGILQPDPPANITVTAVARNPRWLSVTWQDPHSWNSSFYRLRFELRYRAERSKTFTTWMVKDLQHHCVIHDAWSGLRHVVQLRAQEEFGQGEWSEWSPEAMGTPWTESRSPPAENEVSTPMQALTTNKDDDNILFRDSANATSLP


Columns and labels:
Cyno plasma sIL-6R = target: T1, Cyno plasma sIL-6R; test: plasma potency assay, cyno plasma, 2.4 nM IL6; blocked ligand IL-6
Experimental: (§1) All 5 affinity matured Nanobodies and the sequence optimized Nanobody were also tested in a plasma potency assay. […] TMB was used as substrate.

Human soluble IL-6R [1] = target: T2, Human soluble IL-6R; test: Biacore T100; value marked estimated
Human plasma sIL-6R [2] = target: T3, Human plasma sIL-6R; test: plasma potency assay, human plasma, 2.4 nM IL6; blocked ligand IL-6
Experimental: as §1

Human plasma sIL-6R [3] = target: T3, Human plasma sIL-6R; test: plasma potency assay, human plasma, 42 nM IL6; blocked ligand IL-6
Experimental: as §1

Human soluble IL-6R [4] = target: T2, Human soluble IL-6R; test: Biacore T100
Human soluble IL-6R [5] = target: T2, Human soluble IL-6R; test: Biacore T100, IL-6R covalently coupled

| IC50 (Cyno plasma sIL-6R) [nM] | kon (Human soluble IL-6R [1]) [M⁻¹ s⁻¹] | IC50 (Human plasma sIL-6R [2]) [nM] | IC50 (read off the curve) (Human plasma sIL-6R [3]) [nM] | Kd (Human soluble IL-6R [4]) [nM] | koff (Human soluble IL-6R [5]) [s⁻¹] | Binder |
| --- | --- | --- | --- | --- | --- | --- |
| 0.1 | ~1e+06 | 0.13 | ~0.4 | 0.033 | 3.3e-05 | PMP20E10 (VHH, not shown: c-myc and (His)6 tags) VHH: EVQLVESGGGLVQPGGSLRLSCAASGSVFKINVMAWYRQAPGKGRELVAGIVSGGSTSYADSVKGRFTISRDNAKNTLYLQMNSLRPEDTAVYYCAFITTESDYDLGRRYWGQGTLVTVSS |
| 0.07 | ~1e+06 | 0.13 | ~0.4 | 0.033 | 3.3e-05 | PMP20F6 (VHH, not shown: c-myc and (His)6 tags) VHH: EVQLVESGGGLVQPGGSLRLSCAASGSVFKINVMAWYRQAPGKGRELVAGIVSGGSTSYADSVKGRFTISRDNAKNTLYLQMNSLRPEDTAVYYCAFITTNSDYDLGRRYWGQGTLVTVSS |
|  | ~1e+06 | 0.13 | ~0.4 | 0.035 | 3.5e-05 | PMP21D11 (VHH, not shown: c-myc and (His)6 tags) VHH: EVQLVESGGGLVQPGGSLRLSCAASGSVFKINVMAWYRQAPGKGRELVAGIVTGGSTSYADSVKGRFTISRDNAKNTLYLQMNSLRPEDTAVYYCAFITTESDYDLGRRYWGQGTLVTVSS |
| 0.08 | ~1e+06 | 0.1 | ~0.4 | 0.012 | 1.2e-05 | PMP21A10 (VHH, not shown: c-myc and (His)6 tags) VHH: EVQLVESGGGLVQPGGSLRLSCAASGSIFKINVMAWYRQAPGKGRELVAGIVTGGSTSYADSVKGRFTISRDNAKNTLYLQMNSLRPEDTAVYYCAFITTESDYDLGRRYWGQGTLVTVSS |
